Reference: article PMC6193622, “Identification of UHRF2 as a novel DNA interstrand crosslink sensor protein” (PLoS Genetics, 2018)

B1: Flag-UHRF1 wild type purified from Sf9 cells (natural protein, human, UniProt Q96T88-2 1-806, looked up)
chain: MGVFAVPPLSSDTMWIQVRTMDGRQTHTVDSLSRLTKVEELRRKIQELFHVEPGLQRLFYRGKQMEDGHTLFDYEVRLNDTIQLLVRQSLVLPHSTKERDSELSDTDSGCCLGQSESDKSSTHGEAAAETDSRPADEDMWDETELGLYKVNEYVDARDTNMGAWFEAQVVRVTRKAPSRDEPCSSTSRPALEEDVIYHVKYDDYPENGVVQMNSRDVRARARTIIKWQDLEVGQVVMLNYNPDNPKERGFWYDAEISRKRETRTARELYANVVLGDDSLNDCRIIFVDEVFKIERPGEGSPMVDNPMRRKSGPSCKHCKDDVNRLCRVCACHLCGGRQDPDKQLMCDECDMAFHIYCLDPPLSSVPSEDEWYCPECRNDASEVVLAGERLRESKKKAKMASATSSSQRDWGKGMACVGRTKECTIVPSNHYGPIPGIPVGTMWRFRVQVSESGVHRPHVAGIHGRSNDGAYSLVLAGGYEDDVDHGNFFTYTGSGGRDLSGNKRTAEQSCDQKLTNTNRALALNCFAPINDQEGAEAKDWRSGKPVRVVRNVKGGKNSKYAPAEGNRYDGIYKVVKYWPEKGKSGFLVWRYLLRRDDDEPGPWTKEGKDRIKKLGLTMQYPEGYLEALANREREKENSKREEEEQQEGGFASPRTGKGKWKRKSAGGGPSRAGSPRRTSKKTKVEPYSLTAQQSSLIREDKSNAKLWNEVLASLKDRPASGSPFQLFLSKVEETFQCICCQELVFRPITTVCQHNVCKDCLDRSFRAQVFSCPACRYDLGRSYAMQVNQPLQTVLNQLFPGYGNGR
notes: UHRF1, human, wild type; the deletion limits printed for its mutants run to residue 806, so the 806-residue isoform is meant; also called wild type UHRF1; Flag-tagged wild type UHRF1; source: Sf9, purified

Key:
[1] = molecular target: T1, Flag-HA-FANCD2 purified from Sf9 cells (human, UniProt Q9BXW9 1-1451); experiment: co-IP; in vitro binding assay: 1μg of each protein with 10μg BSA in 20mM Tris-HCl pH 8.0, 150mM KCl, 10% glycerol, 2mM β-ME, 10μl, 37°C 1h; HA-FANCD2 immunoprecipitated on protein A sepharose with anti-HA IgG at 4°C, washed with 0.1% Tween-20, eluted with HA peptide; immunoblotting; conditions: both partners purified
T1 construct: FANCD2, human, full-length form; also called Flag-HA-tagged FANCD2; source: Sf9, purified (M2 anti-Flag agarose, Flag peptide elution); not shown: Flag, N-terminal, kept; HA, N-terminal, kept
T1 sequence (Q9BXW9 whole entry): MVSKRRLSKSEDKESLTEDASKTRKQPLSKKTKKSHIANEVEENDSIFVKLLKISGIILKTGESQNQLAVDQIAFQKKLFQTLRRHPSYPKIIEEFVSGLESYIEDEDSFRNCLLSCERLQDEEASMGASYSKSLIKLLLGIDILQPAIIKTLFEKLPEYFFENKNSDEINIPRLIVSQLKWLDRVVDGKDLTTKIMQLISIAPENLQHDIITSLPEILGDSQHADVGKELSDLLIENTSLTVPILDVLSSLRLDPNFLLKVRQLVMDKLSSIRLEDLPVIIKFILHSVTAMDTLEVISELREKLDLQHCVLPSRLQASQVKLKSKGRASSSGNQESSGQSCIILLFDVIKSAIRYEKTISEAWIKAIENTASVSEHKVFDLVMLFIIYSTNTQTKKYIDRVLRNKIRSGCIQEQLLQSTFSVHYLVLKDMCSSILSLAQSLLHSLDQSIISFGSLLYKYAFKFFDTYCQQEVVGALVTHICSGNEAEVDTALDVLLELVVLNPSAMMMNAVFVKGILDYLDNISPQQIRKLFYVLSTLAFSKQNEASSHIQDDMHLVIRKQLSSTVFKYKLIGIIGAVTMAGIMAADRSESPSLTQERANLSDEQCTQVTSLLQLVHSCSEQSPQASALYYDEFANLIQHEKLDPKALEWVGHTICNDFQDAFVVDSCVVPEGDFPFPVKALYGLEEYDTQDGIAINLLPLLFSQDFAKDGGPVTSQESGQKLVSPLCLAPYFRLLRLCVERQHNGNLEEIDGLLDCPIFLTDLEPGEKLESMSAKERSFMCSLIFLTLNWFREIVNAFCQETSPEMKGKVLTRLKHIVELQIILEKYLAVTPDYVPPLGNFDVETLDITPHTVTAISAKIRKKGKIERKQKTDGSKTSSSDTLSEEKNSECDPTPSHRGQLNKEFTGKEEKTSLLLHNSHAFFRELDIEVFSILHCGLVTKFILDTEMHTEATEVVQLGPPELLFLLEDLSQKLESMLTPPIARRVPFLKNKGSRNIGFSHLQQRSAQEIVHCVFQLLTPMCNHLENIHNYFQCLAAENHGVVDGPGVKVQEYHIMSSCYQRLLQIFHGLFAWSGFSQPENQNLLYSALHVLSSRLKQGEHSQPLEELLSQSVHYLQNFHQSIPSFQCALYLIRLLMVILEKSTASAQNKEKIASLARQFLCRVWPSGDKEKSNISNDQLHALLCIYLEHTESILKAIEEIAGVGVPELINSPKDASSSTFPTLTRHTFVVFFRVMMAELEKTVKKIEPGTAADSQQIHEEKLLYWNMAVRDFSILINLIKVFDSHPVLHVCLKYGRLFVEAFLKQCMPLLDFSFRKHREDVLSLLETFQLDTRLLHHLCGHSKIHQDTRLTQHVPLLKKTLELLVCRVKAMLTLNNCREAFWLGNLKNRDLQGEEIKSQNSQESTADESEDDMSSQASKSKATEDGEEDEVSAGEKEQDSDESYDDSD

[2] = molecular target: B1; experiment: co-IP; in vitro binding assay of purified recombinant proteins from Sf9 cells; His-UHRF2 was immunoprecipitated, immunoblotting; conditions: both partners purified

Row | binding result [1] | binding result [2] | Binder
1 | binds | – | Flag-UHRF1 with the UBL domain deleted (natural protein, human, UniProt Q96T88-2 1-806, looked up, UHRF1, human, amino acids 14-91 (UBL domain) deleted; also called UHRF1 UBL deletion mutant; source: Sf9, purified) MGVFAVPPLSSDTLPHSTKERDSELSDTDSGCCLGQSESDKSSTHGEAAAETDSRPADEDMWDETELGLYKVNEYVDARDTNMGAWFEAQVVRVTRKAPSRDEPCSSTSRPALEEDVIYHVKYDDYPENGVVQMNSRDVRARARTIIKWQDLEVGQVVMLNYNPDNPKERGFWYDAEISRKRETRTARELYANVVLGDDSLNDCRIIFVDEVFKIERPGEGSPMVDNPMRRKSGPSCKHCKDDVNRLCRVCACHLCGGRQDPDKQLMCDECDMAFHIYCLDPPLSSVPSEDEWYCPECRNDASEVVLAGERLRESKKKAKMASATSSSQRDWGKGMACVGRTKECTIVPSNHYGPIPGIPVGTMWRFRVQVSESGVHRPHVAGIHGRSNDGAYSLVLAGGYEDDVDHGNFFTYTGSGGRDLSGNKRTAEQSCDQKLTNTNRALALNCFAPINDQEGAEAKDWRSGKPVRVVRNVKGGKNSKYAPAEGNRYDGIYKVVKYWPEKGKSGFLVWRYLLRRDDDEPGPWTKEGKDRIKKLGLTMQYPEGYLEALANREREKENSKREEEEQQEGGFASPRTGKGKWKRKSAGGGPSRAGSPRRTSKKTKVEPYSLTAQQSSLIREDKSNAKLWNEVLASLKDRPASGSPFQLFLSKVEETFQCICCQELVFRPITTVCQHNVCKDCLDRSFRAQVFSCPACRYDLGRSYAMQVNQPLQTVLNQLFPGYGNGR
2 | binds | – | Flag-UHRF1 with the RING domain deleted (natural protein, human, UniProt Q96T88-2 1-806, looked up, UHRF1, human, amino acids 727-806 (RING domain) deleted; also called UHRF1 RING deletion mutant; source: Sf9, purified) MGVFAVPPLSSDTMWIQVRTMDGRQTHTVDSLSRLTKVEELRRKIQELFHVEPGLQRLFYRGKQMEDGHTLFDYEVRLNDTIQLLVRQSLVLPHSTKERDSELSDTDSGCCLGQSESDKSSTHGEAAAETDSRPADEDMWDETELGLYKVNEYVDARDTNMGAWFEAQVVRVTRKAPSRDEPCSSTSRPALEEDVIYHVKYDDYPENGVVQMNSRDVRARARTIIKWQDLEVGQVVMLNYNPDNPKERGFWYDAEISRKRETRTARELYANVVLGDDSLNDCRIIFVDEVFKIERPGEGSPMVDNPMRRKSGPSCKHCKDDVNRLCRVCACHLCGGRQDPDKQLMCDECDMAFHIYCLDPPLSSVPSEDEWYCPECRNDASEVVLAGERLRESKKKAKMASATSSSQRDWGKGMACVGRTKECTIVPSNHYGPIPGIPVGTMWRFRVQVSESGVHRPHVAGIHGRSNDGAYSLVLAGGYEDDVDHGNFFTYTGSGGRDLSGNKRTAEQSCDQKLTNTNRALALNCFAPINDQEGAEAKDWRSGKPVRVVRNVKGGKNSKYAPAEGNRYDGIYKVVKYWPEKGKSGFLVWRYLLRRDDDEPGPWTKEGKDRIKKLGLTMQYPEGYLEALANREREKENSKREEEEQQEGGFASPRTGKGKWKRKSAGGGPSRAGSPRRTSKKTKVEPYSLTAQQSSLIREDKSNAKLWNEVLASLKDRPASGSPFQL
3 | binds | – | Flag-UHRF1 with the PHD domain deleted (natural protein, human, UniProt Q96T88-2 1-806, looked up, UHRF1, human, amino acids 323-379 (PHD domain) deleted; also called UHRF1 PHD deletion mutant; source: Sf9, purified) MGVFAVPPLSSDTMWIQVRTMDGRQTHTVDSLSRLTKVEELRRKIQELFHVEPGLQRLFYRGKQMEDGHTLFDYEVRLNDTIQLLVRQSLVLPHSTKERDSELSDTDSGCCLGQSESDKSSTHGEAAAETDSRPADEDMWDETELGLYKVNEYVDARDTNMGAWFEAQVVRVTRKAPSRDEPCSSTSRPALEEDVIYHVKYDDYPENGVVQMNSRDVRARARTIIKWQDLEVGQVVMLNYNPDNPKERGFWYDAEISRKRETRTARELYANVVLGDDSLNDCRIIFVDEVFKIERPGEGSPMVDNPMRRKSGPSCKHCKDDVASEVVLAGERLRESKKKAKMASATSSSQRDWGKGMACVGRTKECTIVPSNHYGPIPGIPVGTMWRFRVQVSESGVHRPHVAGIHGRSNDGAYSLVLAGGYEDDVDHGNFFTYTGSGGRDLSGNKRTAEQSCDQKLTNTNRALALNCFAPINDQEGAEAKDWRSGKPVRVVRNVKGGKNSKYAPAEGNRYDGIYKVVKYWPEKGKSGFLVWRYLLRRDDDEPGPWTKEGKDRIKKLGLTMQYPEGYLEALANREREKENSKREEEEQQEGGFASPRTGKGKWKRKSAGGGPSRAGSPRRTSKKTKVEPYSLTAQQSSLIREDKSNAKLWNEVLASLKDRPASGSPFQLFLSKVEETFQCICCQELVFRPITTVCQHNVCKDCLDRSFRAQVFSCPACRYDLGRSYAMQVNQPLQTVLNQLFPGYGNGR
4 | binds | binds | 6xHis-UHRF2 purified from Sf9 cells (natural protein, human, UniProt Q96PU4 1-802, looked up, UHRF2, human; also called 6xHis-tagged UHRF2; source: Sf9, purified) MWIQVRTIDGSKTCTIEDVSRKATIEELRERVWALFDVRPECQRLFYRGKQLENGYTLFDYDVGLNDIIQLLVRPDPDHLPGTSTQIEAKPCSNSPPKVKKAPRVGPSNQPSTSARARLIDPGFGIYKVNELVDARDVGLGAWFEAHIHSVTRASDGQSRGKTPLKNGSSCKRTNGNIKHKSKENTNKLDSVPSTSNSDCVAADEDVIYHIQYDEYPESGTLEMNVKDLRPRARTILKWNELNVGDVVMVNYNVESPGQRGFWFDAEITTLKTISRTKKELRVKIFLGGSEGTLNDCKIISVDEIFKIERPGAHPLSFADGKFLRRNDPECDLCGGDPEKKCHSCSCRVCGGKHEPNMQLLCDECNVAYHIYCLNPPLDKVPEEEYWYCPSCKTDSSEVVKAGERLKMSKKKAKMPSASTESRRDWGRGMACVGRTRECTIVPSNHYGPIPGIPVGSTWRFRVQVSEAGVHRPHVGGIHGRSNDGAYSLVLAGGFADEVDRGDEFTYTGSGGKNLAGNKRIGAPSADQTLTNMNRALALNCDAPLDDKIGAESRNWRAGKPVRVIRSFKGRKISKYAPEEGNRYDGIYKVVKYWPEISSSHGFLVWRYLLRRDDVEPAPWTSEGIERSRRLCLRLQYPAGYPSDKEGKKPKGQSKKQPSGTTKRPISDDDCPSASKVYKASDSAEAIEAFQLTPQQQHLIREDCQNQKLWDEVLSHLVEGPNFLKKLEQSFMCVCCQELVYQPVTTECFHNVCKDCLQRSFKAQVFSCPACRHDLGQNYIMIPNEILQTLLDLFFPGYSKGR
5 | binds | – | B1
6 | binds | – | Flag-UHRF1 with the TTD domain deleted (natural protein, human, UniProt Q96T88-2 1-806, looked up, UHRF1, human, amino acids 146-296 (TTD domain) deleted; also called UHRF1 TTD deletion mutant; source: Sf9, purified) MGVFAVPPLSSDTMWIQVRTMDGRQTHTVDSLSRLTKVEELRRKIQELFHVEPGLQRLFYRGKQMEDGHTLFDYEVRLNDTIQLLVRQSLVLPHSTKERDSELSDTDSGCCLGQSESDKSSTHGEAAAETDSRPADEDMWDETELGEGSPMVDNPMRRKSGPSCKHCKDDVNRLCRVCACHLCGGRQDPDKQLMCDECDMAFHIYCLDPPLSSVPSEDEWYCPECRNDASEVVLAGERLRESKKKAKMASATSSSQRDWGKGMACVGRTKECTIVPSNHYGPIPGIPVGTMWRFRVQVSESGVHRPHVAGIHGRSNDGAYSLVLAGGYEDDVDHGNFFTYTGSGGRDLSGNKRTAEQSCDQKLTNTNRALALNCFAPINDQEGAEAKDWRSGKPVRVVRNVKGGKNSKYAPAEGNRYDGIYKVVKYWPEKGKSGFLVWRYLLRRDDDEPGPWTKEGKDRIKKLGLTMQYPEGYLEALANREREKENSKREEEEQQEGGFASPRTGKGKWKRKSAGGGPSRAGSPRRTSKKTKVEPYSLTAQQSSLIREDKSNAKLWNEVLASLKDRPASGSPFQLFLSKVEETFQCICCQELVFRPITTVCQHNVCKDCLDRSFRAQVFSCPACRYDLGRSYAMQVNQPLQTVLNQLFPGYGNGR
